Experiments:
[1] = tested on: NOD mouse; details: cited from earlier work
[2] = tested on: average virtual NOD mouse; assay: Simulation of therapy protocols in the average virtual NOD mouse (computer model of type 1 diabetes); details: IL-10; Pennline 1994 protocol; at 28 wks; expectation from published data
Text: One application of a NOD mouse type 1 diabetes model is to improve understanding of type 1 diabetes pathogenesis in the NOD mouse. Model development therefore focused on islet β cell autoimmunity and tolerance, as well as related mechanisms and interventions. To provide for general immunologic function and not only progression to diabetes, the development effort included representation of several NOD mouse phenotypes. The first phenotype was an average diabetic virtual mouse. […] Typically, a simulation of the average virtual mouse concludes shortly after diabetes diagnosis, which is consistent with post-diabetic sacrifice of NOD mice in the laboratory. […] Additional virtual mice, each with different clinical behaviors and/or underlying pathophysiologies, have also been generated. Similarly, development of modals of type 1 diabetes in other mammals, such as humans, can include the development of various virtual patients representing normal animals or animals having varying degrees of severity or progression of type 1 diabetes.
Because diabetes is typically assessed by measuring blood or urinary glucose, blood glucose levels were represented in the model's clinical read-out. Hyperglycemia (a diabetes indicator) was defined as a glucose level in excess of a commonly used standard (e.g., 200, 250, 300, 350 mg/dl). […]

B1: IL-10: exogenous recombinant human IL-10 (protein, UniProt P22301 19-178, looked up)
Interleukin-10: SPGQGTQSENSCTHFPGNLPNMLRDLRDAFSRVKTFFQMKDQLDNLLLKESLLEDFKGYLGCQALSEMIQFYLEEVMPQAENQDPDIKAHVNSLGENLKTLRLRLRRCHRFLPCENKSKAVEQVKNAFNKLQEKGIYKAMSEFDIFINYIEAYMTMKIRN
In the case of B1, the Incidence ([1]; IL-10, Pennline 1994, Rx 9-24 wks, 1 μg recombinant human IL-10 daily, 15 wks, at 28 wks, vs 85% control) is given as 25% vs. 85% control at 28 wks, the Insulitis ([1]; IL-10, Pennline 1994) is given as “Reduced severity of insulitis” and the Disease progression ([1]; IL-10 delivered in various ways) is given as “protect against disease progression”. The “Expected virtual mouse outcome” value [2] was “No diabetes at 28 wks”.

— US20070071681A1, “Apparatus and method for computer modeling type 1 diabetes” (Entelos, Inc., priority 2005, published 2007)
